Residue numbers refer to the chain shown, from its start. In names and notes the source's numbering stands. Several values for one entry are separate records, joined by “and”; a condition that tells them apart may be missing. Identical values can stand only once.
B1: Ab1 Fab (Fab, V domains shown)
VH: QVQLQESGPGLVKPSQTLSLTCTVSGYAFTAYNIHWVRQAPGQGLEWMGSFDPYDGGSSYNQKFKDRLTISKDTSKNQVVLTMTNMDPVDTATYYCARGWYYFDYWGHGTLVTVSS
VL: DIVMTQTPLSLPVTPGEPASISCRASKSISKYLAWYQQKPGQAPRLLIYSGSTLQSGIPPRFSGSGYGTDFTLTINNIESEDAAYYFCQQHDESPYTFGEGTKVEIK
notes: Soluble Fab from an M13 phage vector in E. coli: VL + kappa constant region, VH + human CH1 + His and HA tags; also called WT; parental Fab
B2: Ab1 Fab variant H1 T32A (Fab, V domains shown)
VH: B1 VH with T30A
VL: B1 VL
notes: Fab
B3: H1 T32A/L2 T69R Ab1 scFv (scFv)
scFv: QVQLQESGPGLVKPSQTLSLTCTVSGYAFAAYNIHWVRQAPGQGLEWMGSFDPYDGGSSYNQKFKDRLTISKDTSKNQVVLTMTNMDPVDTATYYCARGWYYFDYWGHGTLVTVSSGGGGSGGGGSGGGGSADIVMTQTPLSLPVTPGEPASISCRASKSISKYLAWYQQKPGQAPRLLIYSGSRLQSGIPPRFSGSGYGTDFTLTINNIESEDAAYYFCQQHDESPYTFGEGTKVEIKRDYKDDDDKGKPGSGKPGSGKPGSGKPGSYPYDVPDYAS
notes: VH - linker - VL with C-terminal FLAG and HA tags; also called scFv variant H1 T32A+L2 T69R; Ab1.2

How the values were obtained:
human ROR1 on live cells [1] = target: T1, human ROR1 on live cells (human, UniProt Q01973 30-937); experiment: flow cytometry on live JeKo-1 cells, Fab detected with anti-HA-PE
T1 construct: ROR1-transfected MEC cells (~56,000 copies/cell) or JeKo-1 cells (~13,000 copies/cell); the cell line is named under assay; also called ROR1-transfected MEC cells; JeKo-1 cells
T1 sequence (Q01973 30-937 limits assumed): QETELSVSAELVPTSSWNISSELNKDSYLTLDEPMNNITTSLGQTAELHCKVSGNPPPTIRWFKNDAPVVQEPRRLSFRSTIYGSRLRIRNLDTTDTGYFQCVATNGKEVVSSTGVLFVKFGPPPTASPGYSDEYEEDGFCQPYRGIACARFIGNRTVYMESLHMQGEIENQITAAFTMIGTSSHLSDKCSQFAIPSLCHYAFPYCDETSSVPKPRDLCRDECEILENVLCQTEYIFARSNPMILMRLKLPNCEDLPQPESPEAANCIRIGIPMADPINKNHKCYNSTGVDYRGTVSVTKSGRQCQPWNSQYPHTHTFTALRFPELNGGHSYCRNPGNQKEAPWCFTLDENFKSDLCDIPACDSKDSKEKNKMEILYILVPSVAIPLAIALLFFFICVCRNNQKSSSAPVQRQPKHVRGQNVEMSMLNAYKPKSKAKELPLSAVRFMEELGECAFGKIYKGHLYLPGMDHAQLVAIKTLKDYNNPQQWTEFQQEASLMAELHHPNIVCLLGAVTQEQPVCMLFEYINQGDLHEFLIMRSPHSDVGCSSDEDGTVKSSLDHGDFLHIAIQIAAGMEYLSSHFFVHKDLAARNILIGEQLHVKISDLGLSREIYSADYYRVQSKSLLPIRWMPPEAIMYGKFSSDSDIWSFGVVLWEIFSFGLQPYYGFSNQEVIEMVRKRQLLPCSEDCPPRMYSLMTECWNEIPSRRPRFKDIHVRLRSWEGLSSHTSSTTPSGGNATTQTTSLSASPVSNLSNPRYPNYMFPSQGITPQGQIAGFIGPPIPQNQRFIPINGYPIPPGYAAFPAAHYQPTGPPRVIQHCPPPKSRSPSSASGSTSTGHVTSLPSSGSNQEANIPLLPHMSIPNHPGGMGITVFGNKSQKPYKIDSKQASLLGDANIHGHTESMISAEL
Procedure: (§1) ROR1 binding was quantitated using flow cytometry and 2.5E5 ROR1-transfected MEC cells or JeKo-1 cells for each concentration of Fab variant. The cells were placed in 50 μL of PBS with 2% FBS. Next, the cells were diluted with an equal volume of 2× stock of the test Fab variant and the cells and antibody were co-incubated on ice for 20 min. The cells were then washed 3 times with 300 μL of FACS buffer and were resuspended in 100 μL of a 70-fold dilution of anti-HA.11-PE conjugate, clone 16B12 (BioLegend, cat. #901517) and incubated on ice with reduced light for 20 min. Subsequently, the cells were washed 3 times with 300 μL of FACS buffer and fixed with 2% paraformaldehyde for 10 min at 25° C. The cells then were washed 2 times with 300 μL of FACS buffer and analyzed on a Miltenyi MACSQuant Analyzer.

[2] = target: T2, recombinant human ROR1 extracellular domain (human, UniProt Q01973 30-406); experiment: ELISA, soluble Fab on coated huROR1-ECD
T2 construct: biotinylated for the filter lifts; also called huROR1-ECD; human ROR1-ECD
T2 sequence (Q01973 30-406 limits assumed): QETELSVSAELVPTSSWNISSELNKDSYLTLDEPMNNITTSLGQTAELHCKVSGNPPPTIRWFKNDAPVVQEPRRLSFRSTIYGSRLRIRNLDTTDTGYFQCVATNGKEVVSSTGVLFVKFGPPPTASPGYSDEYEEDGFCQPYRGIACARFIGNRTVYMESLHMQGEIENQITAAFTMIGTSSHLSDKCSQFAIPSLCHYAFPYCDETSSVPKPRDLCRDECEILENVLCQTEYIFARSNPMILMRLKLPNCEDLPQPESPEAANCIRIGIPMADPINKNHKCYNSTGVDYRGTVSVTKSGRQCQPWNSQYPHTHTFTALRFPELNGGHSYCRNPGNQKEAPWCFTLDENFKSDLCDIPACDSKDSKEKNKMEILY

[3] = target: T2, recombinant human ROR1 extracellular …; experiment: ELISA, soluble Fab on coated huROR1-ECD; WT control beside variant G27N (…, SEQ ID NO: 15)
Procedure: (§2) The previously described filter lift assay provides a visual, qualitative assessment of antigen binding (Example 1). In order to assess the ROR1 binding activity of Ab1 Fab in a more quantitative fashion, an ELISA assay was developed. A 96-well Costar-3366 plate was coated with 50 μL/well of 1 μg/mL human ROR1-ECD (ACROBiosystems, cat. #RO1-H522y) in PBS overnight at 4° C. The plate was rinsed once with PBS-T and blocked with 100 μL/well of 5% M-P for 1 h at 25° C. Fab samples were serially diluted 3-fold using 5% M-P and 50 μL/well was incubated for 1 h at 25° C. The plate was washed three times with PBS-T and 50 μL/well anti-human kappa, and HRP conjugate (Southern Biotech, cat. #2060-05) diluted 10,000-fold in 5% M-P was added for 1 h at 25° C. In certain assays (extended wash format), the plate was placed in large volumes (up to 1 L) of PBS-T and incubated, with mixing, for 2-5 h prior to the addition of anti-human kappa, HRP conjugate. The plate was washed three times with PBS-T, and developed with 50 μL/well 1-Step Ultra TMB-ELISA (Thermo Scientific, cat. #34028). The reaction was terminated by the addition of 2 N H2504 and the A450 was determined using a Spectramax plate reader.

[4] = target: T2, recombinant human ROR1 extracellular …; experiment: ELISA, soluble Fab on coated huROR1-ECD; remark: listed apart in the source
Procedure: as §2

[5] = target: T2, recombinant human ROR1 extracellular …; experiment: ELISA, soluble Fab on coated huROR1-ECD; remark: listed apart in the source
[6] = target: T2, recombinant human ROR1 extracellular …; experiment: ELISA with prolonged wash, soluble Fab on coated huROR1-ECD
Procedure: as §2
(§3) Subsequently, the libraries were screened by capture lift to identify the strongest binding variants. The identity of the variants was determined by DNA sequencing and the relative affinities were characterized using an ELISA (described in Example 2) modified to enable further discrimination between the highest affinity variants. Specifically, following the initial incubation with soluble Fab, the plates were washed for a prolonged time (>1 h) in large volumes of PBS-T. The plates were then developed as described in Example 2.

[7] = target: T2, recombinant human ROR1 extracellular …; experiment: as above; remark: listed apart in the source
Procedure: as §2, §3

[8] = target: T2, recombinant human ROR1 extracellular …; experiment: ELISA with prolonged wash (>1 h in PBS-T): huROR1-ECD coated on the plate, soluble Fab titrated, anti-human kappa-HRP detection
Procedure: as §2, with “The plate was washed three times with PBS-T, and developed with 50 μL/well 1-Step Ultra TMB-ELISA (Thermo Scientific, cat. #34028).” left out
Subsequently, the libraries were screened by capture lift to identify the strongest binding variants. The identity of the variants was determined by DNA sequencing and the relative affinities were characterized using an ELISA (described in Example 2) modified to enable further discrimination between the highest affinity variants. […]

[9] = target: T2, recombinant human ROR1 extracellular …; experiment: ELISA with prolonged wash, soluble Fab on coated huROR1-ECD; remark: listed apart in the source
Procedure: as §2, §3

human ROR1 on live cells [10] = target: T1, human ROR1 on live cells; experiment: flow cytometry on live ROR1-transfected MEC cells, Fab detected with anti-HA-PE
Procedure: as §1
Initially, three anti-ROR1 Fab variants, each differing from the parental antibody by a single amino acid, were characterized for binding to human ROR1 using live ROR1-transfected MEC cells. […] The binding profiles of the variants on live ROR1-transfected MEC cells were consistent with the binding profiles obtained using recombinant huROR1-ECD and an ELISA (see Example 3, FIG. 5).

[11] = target: T2, recombinant human ROR1 extracellular …; experiment: ELISA: huROR1-ECD coated on the plate, periplasmic scFv in serial dilution, anti-HA-HRP detection; x axis is Log [relative expression], no concentration unit
Procedure: scFv constructs were expressed and isolated from the periplasmic space using the same protocol that was used for Fabs (Example 2). In order to quantitate the relative levels of scFv expression of the three variants, a 96-well Costar-3366 plate was coated with 50 μl/well of 2 μg/mL anti-FLAG-unlabeled (Rockland, cat. #600-401-383) in PBS overnight at 4° C. The plate was washed three times with PBS containing 0.05% Tween 20 (PBS-T) and blocked with 100 μL of 5% M-P. The plate was washed once, then 50 μl/well of sample dilutions was added. Sample dilutions were performed with 5% M-P. The plates were incubated 1 h at 25° C., washed three times with PBS-T, and incubated with 50 μl/well of anti-HA HRP conjugate (Roche, cat. #12013819001), diluted 1,000-fold in 5% M-P for 1 h at 25° C. The plate was washed three times with PBS-T, and developed with 50 μl/well 1-Step Ultra TMB-ELISA (Thermo Scientific, Prod. #34028, Lot #SF2405221). The reaction was terminated by the addition of 2 N H2504 and the A450 was determined using a Spectramax plate reader.
Next, the binding of the isolated scFv variants to huROR1-ECD was assessed by ELISA as described in Example 2. A 96-well Costar-3366 plate was coated with 50 μl/well of 1 μg/mL human ROR-1 (AcroBiosystems, cat. #R01H522Y) in PBS overnight at 4° C. The plate was washed three times with PBS-T and blocked with 100 μL of 5% M-P. The plate was washed once, then 50 μl/well of 2-fold serial dilutions of sample was added. Sample dilutions were performed with 5% M-P. The plates were incubated 1 h at 25° C., washed three times with PBS-T, and incubated with 50 μl/well of anti-HA HRP conjugate (Roche, cat. #12013819001), diluted 1,000-fold in 5% M-P for 1 h at 25° C. […] The reaction was terminated by the addition of 2 N H₂SO₄ and the A450 was determined using a Spectramax plate reader. In order to compare the relative binding strength of the scFv variants, the expression levels as determined using the scFv ELISA described above were normalized to the Ab1 parental construct. […]

human ROR1 on live cells [12] = target: T1, human ROR1 on live cells; experiment: flow cytometry on live JeKo-1 cells, scFv detected with anti-HA-PE; x axis is Log [relative scFv expression], no concentration unit

Binder	EC50 (read off the curve) (human ROR1 on live cells [1]) [nM]	Kd [2] [nM]	Kd [3] [nM]	Kd [4] [nM]	Kd [5]	Kd [6]	Kd [7] [nM]	fold increase of binding against Ab1 [2] [fold]	EC50 (read off the curve) [8] [nM]	Kd [9]	EC50 (read off the curve) (human ROR1 on live cells [10]) [µg/mL]	binding result [11]	binding result (human ROR1 on live cells [12])
B1	~10	3	3.2	7	3.2 nM and 6 nM	–	–	–	–	–	–	–	–
B2	~2	–	–	–	1.5 nM	3.6 nM and 1.6 nM and 2.7 nM	3	~4	~3	3 nM and 2.7 nM	~0.05	–	–
B3	–	–	–	–	–	–	–	–	–	–	–	binds	binds

— patent US20230021388A1 (VELOSBIO, published 2023)
